Assay results published in publication PMC3762913.

Columns and labels:
Conditions in all cases: remark: other sources report otherwise
[1] = molecular target: T1, wild type (WT) human peripheral myelin protein 22 (PMP22) (human), Q01453; experiment: SEC
T1 chain: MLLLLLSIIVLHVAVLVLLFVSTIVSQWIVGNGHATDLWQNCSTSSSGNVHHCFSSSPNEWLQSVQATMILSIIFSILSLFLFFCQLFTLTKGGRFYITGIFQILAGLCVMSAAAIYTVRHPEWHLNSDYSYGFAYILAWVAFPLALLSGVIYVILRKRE

[2] = molecular target: T1, wild type (WT) human peripheral myelin …; experiment: cross-linking
[3] = molecular target: T1, wild type (WT) human peripheral myelin …; experiment: cross-linking
[4] = molecular target: T1, wild type (WT) human peripheral myelin …; experiment: cross-linking
[5] = molecular target: T1, wild type (WT) human peripheral myelin …; experiment: cross-linking

stoichiometry N [1]: 2
fraction of cross-linked dimer [2]: 0.2
fraction of cross-linked dimer [3]: 0.3
fraction of cross-linked dimer [4]: 0.5
stoichiometry N [4]: 2
fraction of cross-linked dimer [5]: 0.6
B1: wild type (WT) human peripheral myelin protein 22 (PMP22), Q01453 1-160 (natural protein)
chain: T1 chain
